Assay results: US20090297438A1, “Human Monoclonal Antibodies to Prostate Specific Membrane Antigen (PSMA)” (priority 2005, published 2009)
Entries after “also recorded” stand apart in the source; their conditions may differ.

Key:
[1] = biological target: T1, PSMA immunopurified from LNCaP cells (Homo sapiens, UniProt Q04609); assay: Binding specificity by ELISA; conditions: antibody from 5 μg/ml, 1:2 serial dilutions
T1 construct: endogenous in cells; host or cells: LNCaP cells (protein immunopurified from them)
T1 sequence (Q04609 whole entry): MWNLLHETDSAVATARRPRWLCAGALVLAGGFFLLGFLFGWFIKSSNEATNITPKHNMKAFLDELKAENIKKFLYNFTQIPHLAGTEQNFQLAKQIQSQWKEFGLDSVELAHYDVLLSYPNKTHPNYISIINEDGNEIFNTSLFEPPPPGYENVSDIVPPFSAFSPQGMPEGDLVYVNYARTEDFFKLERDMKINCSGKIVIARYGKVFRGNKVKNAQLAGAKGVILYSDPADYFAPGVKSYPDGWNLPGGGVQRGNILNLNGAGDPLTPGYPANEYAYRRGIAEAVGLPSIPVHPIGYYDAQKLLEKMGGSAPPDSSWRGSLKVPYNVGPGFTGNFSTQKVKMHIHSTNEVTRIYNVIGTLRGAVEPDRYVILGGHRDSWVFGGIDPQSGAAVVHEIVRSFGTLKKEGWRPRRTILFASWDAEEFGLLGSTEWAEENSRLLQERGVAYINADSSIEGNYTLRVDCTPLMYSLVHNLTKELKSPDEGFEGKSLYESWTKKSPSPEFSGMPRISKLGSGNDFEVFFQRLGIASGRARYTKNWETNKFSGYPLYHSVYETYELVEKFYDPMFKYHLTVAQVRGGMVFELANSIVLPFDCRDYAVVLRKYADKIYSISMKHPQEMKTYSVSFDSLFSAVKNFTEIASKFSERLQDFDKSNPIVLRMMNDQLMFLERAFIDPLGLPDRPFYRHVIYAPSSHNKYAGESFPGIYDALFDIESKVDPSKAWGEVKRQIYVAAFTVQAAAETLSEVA
Description: A comparison of anti-PSMA antibodies on binding to immunopurified PSMA was performed by standard ELISA to examine the specificity of binding for PSMA.
PSMA was immunopurified from LNCaP cells and tested for binding against the anti-PSMA human monoclonal antibodies 1C3, 2A10, 2F5, and 2C6. Standard ELISA procedures were performed. The anti-PSMA human monoclonal antibodies were added at a concentration of 5 μg/ml and titrated down at 1:2 serial dilutions. Goat-anti-human IgG (kappa chain-specific) polyclonal antibody conjugated with horseradish peroxidase (HRP) was used as secondary antibody. The human anti-PSMA monoclonal antibody 7F12 was used as a positive control and a blank was used as a negative control.

[2] = biological target: T2, PSMA-expressing LNCaP cells (Homo sapiens, UniProt Q04609); assay: Binding specificity by flow cytometry; conditions: FITC-labeled anti-human IgG detection, different antibody concentrations
T2 construct: host or cells: LNCaP human prostate cancer cells
T2 sequence (Q04609 whole entry): as above
Description: The human PSMA-expressing prostate cancer cell line LNCaP was used to determine the specificity of anti-PSMA human monoclonal antibodies by flow cytometry. Binding of the 2F5, 2A10, and 2C6 anti-PSMA human monoclonal antibodies was assessed by incubating the LNCaP cells with the anti-PSMA human monoclonal antibodies at different concentrations. The cells were washed and binding was detected with a FITC-labeled anti-human IgG Ab. Flow cytometric analyses were performed using a FACScan flow cytometry (Becton Dickinson, San Jose, Calif.). The human anti-PSMA monoclonal antibody 7F12 (as described in PCT Publication WO 03/064606) was used as a positive control and a non-PSMA specific isotype control antibody was used as a negative control. The results are depicted in FIG. 9.

| binding to immunopurified PSMA [1] | Molecule | binding to PSMA-expressing LNCaP cells [2] |
| --- | --- | --- |
| detectable but only low level binding | 1C3: human monoclonal anti-PSMA antibody, VH SEQ ID NO: 1, VL SEQ ID NO: 5 (antibody, listed as Homo sapiens, V domains shown) VH: QVQLVESGGGVVQPGRSLRLSCAASGFTFSSYAMHWVRQAPGKGLEWVAVISYDGNNKYYADSVKGRFTISRDNSKNTLYLQMNSLRAEDTAVYYCARAVPWGSRYYYYGMDVWGQGTTVTVSS VL: AIQLTQSPSSLSASVGDRVTITCRASQGISSALAWYQQKSGKAPKLLIFDASSLESGVPSRFSGSGSGTDFTLTISSLQPEDFATYYCQQFNSYPLTFGGGTKVEIK |  |
| detectable but only low level binding | 2C6: human monoclonal anti-PSMA antibody, VH SEQ ID NO: 4, VL SEQ ID NO: 8 (antibody, listed as Homo sapiens, V domains shown) VH: EVQLVQSGSEVKKPGESLKISCKGSGYSFTNYWIGWVRQMPGKGLEWMGIIYPGDSDTRYSPSFQGQVTISADKSISTAYLQWSSLKASDTAMYYCASPGYTSSWTSFDYWGQGTLVTVSS VL: EIVLTQSPATLSLSPGERATLSCRASQSVSSYLAWYQQKPGQAPRLLIYDASNRATGIPARFSGSGSGTDFTLTISSLEPEDFAVYYCQQRSNWPLFTFGPGTKVDIK | bound specifically; also recorded: binds the cell surface of PSMA-expressing LNCaP cells |
| bound with high specificity | 2F5: human monoclonal anti-PSMA antibody, VH SEQ ID NO: 3, VL SEQ ID NO: 7 (antibody, listed as Homo sapiens, V domains shown) VH: EVQLVQSGAEVKKPGESLKISCKGSGYSFTSNWIGWVRQMPGKGLEWMGIIYPGDSDTRYSPSFQGQVTISADKSISTAYLQWNSLKASDTAMYYCARQTGFLWSFDLWGRGTLVTVSS VL: AIQLTQSPSSLSASVGDRVTITCRASQDISSALAWYQQKPGKAPKLLIYDASSLESGVPSRFSGSGSGTDFTLTISSLQPEDFATYYCQQFNSYPLTFGGGTKVEIKIK | bound specifically; also recorded: binds the cell surface of PSMA-expressing LNCaP cells |
